Results on 15 molecules are retold here after patent US20060235215A1 (published 2006).

Assay in all cases: yeast two-hybrid
Assay [1] deals with T1, O. sativa Chitinase, Class III, bait fragment aa 10-200 (Oryza sativa).
T1 construct: bait; also called OsCHIB1; PN19651
T1 chain: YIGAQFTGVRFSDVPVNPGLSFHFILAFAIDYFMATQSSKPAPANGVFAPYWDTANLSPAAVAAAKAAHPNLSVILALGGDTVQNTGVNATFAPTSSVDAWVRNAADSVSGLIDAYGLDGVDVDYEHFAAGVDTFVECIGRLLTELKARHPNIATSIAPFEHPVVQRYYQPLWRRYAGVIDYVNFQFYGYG
The method, then:
(§1) Yeast carrying the target gene construct was combined with yeast carrying the activation domain library. The two yeast strains mated to form diploid yeast and were plated on media that selected for expression of one or more Ga14p-responsive reporter genes. Thus, both hybrid proteins (i.e., the target “bait” protein and the activation domain “prey” protein) were expressed in a yeast reporter strain where an interaction between the test proteins results in transcription of the reporter genes […]. Colonies that arose after incubation were selected for further characterization. The activation domain plasmid was isolated from each colony obtained in the two-hybrid search. The sequence of the insert in this construct was obtained by sequence analysis (e.g., Sanger's dideoxy nucleotide chain termination method; see Ausubel et al., 1988, including updates up to 2002). Thus, the identity of positives obtained from these searches was determined by sequence analysis against proprietary and public (e.g., GENBANK®) nucleic acid and protein databases.
This example provides newly characterized rice proteins interacting with a rice chitinase, class III (OsCHIB1), and with rice cellulose synthase catalytic subunit, RSW1-like (OsCS). An automated, high-throughput yeast two-hybrid assay technology (provided by Myriad Genetics Inc., Salt Lake City, Utah) was used to search for protein interactions with the chitinase and cellulose synthase bait proteins.

The target of assay [2] is T2, O. sativa Calreticulin Precursor, bait fragment aa 1-150 (Oryza sativa, UniProt Q9SLY8 1-150).
T2 construct: bait; also called OsCRTC; PN20544

Assay [3] addresses T3, O. sativa Serine/Threonine Protein Phosphatase PP2A-2, Catalytic Subunit, bait fragment aa 150-308 (Oryza sativa, UniProt A2XN40 150-307).
T3 construct: bait; also called OsPP2A-2; PN20254
T3 sequence: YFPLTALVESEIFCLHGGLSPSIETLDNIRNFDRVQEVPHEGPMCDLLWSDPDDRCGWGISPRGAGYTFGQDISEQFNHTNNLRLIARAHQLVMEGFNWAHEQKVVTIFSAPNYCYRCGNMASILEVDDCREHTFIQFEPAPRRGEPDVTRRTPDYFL

For assay [4], the target named is T4, Soluble Starch Synthase, prey clone aa 68-270 (Oryza sativa, UniProt A2Y9M4 68-270).
T4 construct: prey; AD fusion; input trait library; also called OsSSS; PN19701
T4 sequence: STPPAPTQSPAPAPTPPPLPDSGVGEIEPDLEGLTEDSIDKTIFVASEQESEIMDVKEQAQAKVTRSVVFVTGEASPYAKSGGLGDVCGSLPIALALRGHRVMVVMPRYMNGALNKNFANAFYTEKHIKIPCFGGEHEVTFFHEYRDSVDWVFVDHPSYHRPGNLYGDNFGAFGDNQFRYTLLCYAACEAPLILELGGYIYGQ

Assay [5] deals with T5, Soluble Starch Synthase, prey clone aa 97-263 (Oryza sativa, UniProt A2Y9M4 97-263).
T5 construct: prey; AD fusion; output trait library; also called OsSSS; PN19701
T5 sequence: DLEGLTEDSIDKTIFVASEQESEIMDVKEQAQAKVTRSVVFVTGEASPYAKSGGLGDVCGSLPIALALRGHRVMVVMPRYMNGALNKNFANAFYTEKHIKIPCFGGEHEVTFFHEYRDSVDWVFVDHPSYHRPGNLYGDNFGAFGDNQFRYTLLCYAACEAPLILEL

Assay [6] deals with T6, OsSGT1, bait fragment aa 200-368 (Oryza sativa, UniProt Q0JL44 200-367).
T6 construct: bait; also called PN20285
T6 sequence: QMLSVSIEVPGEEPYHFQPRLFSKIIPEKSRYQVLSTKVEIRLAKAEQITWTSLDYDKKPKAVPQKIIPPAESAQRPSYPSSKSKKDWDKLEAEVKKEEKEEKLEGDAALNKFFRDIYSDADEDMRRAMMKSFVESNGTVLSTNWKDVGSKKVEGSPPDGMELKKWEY
The method, then: as §1
The rice SGT1 protein shares 74 and 75% amino acid sequence similarity with two Arabidopsis thaliana SGT1 homologs and 45% amino acid sequence similarity with Saccharomyces cerevisiae SGT1. In yeast, SGT1 is required for cell-cycle progression at the G1/S-phase and G2/M-phase transitions. In A. thaliana, SGT1b interacts with Rar1 and mediates disease resistance. Thus, in plants, SGT1 likely controls processes that are fundamental to disease resistance and development. The rice OsSGT1 protein was chosen as a bait for these interaction studies based on its potential relevance to disease resistance and development.

Assay [7] addresses T7, Hypothetical Protein 006819-2510, Similar to Hemerocallis Senescence-Related Protein 5, bait fragment aa 1-150 (Oryza sativa).
T7 construct: bait; also called Os006819-2510; PN20462
T7 chain: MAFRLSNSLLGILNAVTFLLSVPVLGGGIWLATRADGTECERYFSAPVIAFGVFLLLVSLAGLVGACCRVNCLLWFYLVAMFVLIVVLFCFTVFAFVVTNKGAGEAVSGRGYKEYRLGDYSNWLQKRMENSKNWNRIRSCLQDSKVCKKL

The target in assay [8] is T8, Hypothetical Protein 003118-3674 Similar to Lycopersicon esculentum Calmodulin, bait fragment aa 75-149 (Oryza sativa, UniProt Q84VG0 75-148).
T8 construct: bait; also called PN20551
T8 sequence: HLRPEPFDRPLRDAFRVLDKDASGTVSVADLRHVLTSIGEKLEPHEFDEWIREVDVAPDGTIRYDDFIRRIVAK

T2 sequence (Q9SLY8 1-150): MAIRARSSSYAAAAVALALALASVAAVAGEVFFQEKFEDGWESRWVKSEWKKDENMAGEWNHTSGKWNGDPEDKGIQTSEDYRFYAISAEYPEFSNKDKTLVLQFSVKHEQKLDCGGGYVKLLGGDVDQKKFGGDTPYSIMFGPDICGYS

B1: Novel Protein PN22020, Fragment, Similar to A. thaliana Putative Protein, prey clone aa 76-170 (other)
chain: ANATDGVKPLVGSARLPLRDVLADTGIGARASRSLRLKRPSGRPHGRLEVRVAVREPKRYYDPSPAYPAPYHQQTNRDPYAYGNTTTGGYGYAYG
notes: prey; AD fusion; input trait library; three clones; also called OsPN22020
On to B1, for which the binding result in assay [1] is given as “binds”.

B2: Novel Protein PN29950, prey clone aa 7-103 (other)
chain: TANLVGQITTTCTDDISVNRSAENSSQKNIPLDGVSAQSIKPSASSRSEPVGLGGGLQPKRRSRTAKPPGSSSDTGEVVNSSRISNSQNAVSMGQQV
notes: prey; AD fusion; output trait library; also called OsPN29950
In the case of B2, the binding result in assay [2] is recorded as “binds”.

B3: O. sativa Glutelin CAA33838, prey clone aa 5-155 (other)
chain: VFSRFSIYFCVLLLCHGSMAQLFNPSTNPWHSPRQGSFRECRFDRLQAFEPLRKVRSEAGVTEYFDEKNELFQCTGTFVIRRVIQPQGLLVPRYTNIPGVVYIIQGRGSMGLTFPGCPATYQQQFQQFSSQGQSQSQKFRDEHQKIHQFRQ
notes: prey; AD fusion; output trait library; also called OsCAA33838; PN24775
For B3, in assay [3], the binding result was “binds”.

B4: Novel Protein PN22020, Fragment, Similar to A. thaliana Putative Protein, prey clone aa 128-170 (other)
chain: AVREPKRYYDPSPAYPAPYHQQTNRDPYAYGNTTTGGYGYAYG
notes: prey; AD fusion; input trait library; also called OsPN22020
As for B4, the binding result in assay [1] is “binds”.

B5: Hypothetical Protein 011994-D16, Similar to Z. mays DnaJ protein, prey clone aa 99-368 (other)
chain: FGPSFGGGGSSRGRRQRRGEDVIHPLKVSLEDLYNGTSKKLSLSRNVLCAKCKGKGSKSGASMRCPGCQGSGMKITIRQLGPSMIQQMQQPCNECKGTGESINEKDRCPGCKGEKVIQEKKVLEVHVEKGMQHNQKITFPGEADEAPDTVTGDIVFVLQQKDHSKFKRKGDDLFYEHTLSLTEALCGFQFVLTHLDNRQLLIKSNPGEVVKPDQFKAINDEGMPMYQRPFMKGKLYIHFTVEFPDSLAPEQCKALEAVLPPKPASQLTEM
notes: prey; AD fusion; output trait library; also called Os011994-D16; PN20618
Turning to B5, in assay [3], the binding result was “binds”.

B6: O. sativa Calreticulin Precursor, bait fragment aa 250-425 (other)
chain: PKEIPDPDAKKPEAGADEEDGEWTAPTIRNPEYKGPWKQKKIKNPNYQGKWKPPMIATPDFQDDPYIYAFDSLKSIGIELWQVKSGTLFDNILITDDAALAKTFAEETWAKHKDAEKAAFDEAEKKKEEEEAAKAGEDDDDLDDEDAEDEDKADEKADSDAEDGKDSDDEKHDEL
notes: bait; text says OsCRTC has 424 aa; also called OsCRTC; PN20544
In the case of B6, the binding result in assay [4] and in assay [5] was “binds” throughout.

B7: Elicitor responsive protein, prey clone aa 54-144 (other)
chain: ETFMFSVTHNATELIIKLMDSDSGTDDDFVGEATISLEAIYTEGSIPPTVYNVVKEEEYRGEIKVGLTFTPEDDRDRGLSEEDIGGWKQSS
notes: prey; AD fusion; input trait library; also called OsERP; PN20696
For B7, in assay [6], the binding result is listed as “binds”.

B8: Novel Protein PN24162, Porin-like, Voltage-Dependent Anion Channel Protein, prey clone aa 28-164 (other)
chain: QKLTVSTVSSSGVGLTSTAVKKGGLYTLDVSSVYKYKSTLVDVKVDTESNISTTLTVFDVLPSTKLVTSVKLPDYNSGKVEMQYFHENASFATAVGMKPSPVVEFSGTAGAQGLAFGAEAGFDTATGKFTKYSAAIG
notes: prey; AD fusion; output trait library; also called OsPN24162
Consider B8, for which, in assay [3], the binding result is “binds”.

B9: Novel Protein PN29037, prey clone aa 73-165 (other)
chain: VVFDKDGVLEQIGEGKGYVDMSTVDAATSCKISEAIKQKGGAFVEAPVSGSKKPAEDGQLVILAAGDKVLYDDMVPAFDVLGKKSFFLGEIGN
notes: prey; AD fusion; input trait library; also called OsPN29037
On to B9, for which the binding result in assay [7] was “binds”.

B10: Novel Protein PN29950, prey clone aa 50-343 (other)
chain: ASSRSEPVGLGGGLQPKRRSRTAKPPGSSSDTGEVVNSSRISNSQNAVSMGQQVLQALASQNTNVNRSHVTDSPLPSTTSQFSGGMPPRRQGGEGQVDFGSMISSVLNNPAFGNLLSNVAEQTGMGSAGDLRNMVEECAQSPAIMDTMSNLVQNVDGSGRGQGGIDLSRMMQQMMPVVSQVLGGAGARPAGTNSGQSRLQPRRSDMRVDDASDYGNSQIDLHQAREHIEQHDSPRDIFGAVLETAAQAYGEDESIEDMLEELVSDPELTDDYLKLLLQQVRQRIQSASQSGNQS
notes: as for B2
Consider B10, for which the binding result in assay [2] is recorded as “binds”.

B11: Oryza sativa Putative Myosin, prey clone aa 824-935 (other)
chain: SLARKHRAAIILQRNLKCWLARRYFVNIRKASVVIQSGIRGCLVRRCAGNVDLLNVLREFESKKEAEGDQILIKASFLAELQRRILKAEATVREKDEENEMLQQRLQQYENR
notes: prey; AD fusion; output trait library; also called OsPN23878
As to B11, the binding result in assay [8] was “binds”.

B12: HSP70-like PN23949, prey clone aa 244-418 (other)
chain: HKLKSSLILMPMVSLLLLLLIRVLGRNRISPSPALSTLPKDEVERMVEEADKFAQEDKEKRDAIDTKNQADSVVYQTEKQLKELGDKVPAPVKEKVDAKLNELKEAIAGGSTQSMKDAMAALNEEVMQIGQAMYNQQPNAGAAGPTPGADAGPTSSGGKGPNDGDVIDADFTDSN
notes: prey; AD fusion; output trait library
B12: the binding result in assay [6] is listed as “binds”.

B13: Oryza sativa Putative Myosin, prey clone aa 685-888 (other)
chain: IYEQGLVLQQLKCCGVLEVVRISRSGYPTRMTHQKFARRYGFLLLEDVASQDPLSVSVAILHQFNILPEMYQVGYTKLFFRTGQIGKLEDTRNRTLHGILRVQSCFRGHQARRHARERIRGVLALQSFIRGENARKMYSSLARKHRAAIILQRNLKCWLARRYFVNIRKASVVIQSGIRGCLVRRCAGNVDLLNVLREFESKKE
notes: as for B11
For the molecule B13, the binding result in assay [7] is “binds”.

B14: Novel Protein PN29950, prey clone aa 138-343 (other)
chain: RRQGGEGQVDFGSMISSVLNNPAFGNLLSNVAEQTGMGSAGDLRNMVEECAQSPAIMDTMSNLVQNVDGSGRGQGGIDLSRMMQQMMPVVSQVLGGAGARPAGTNSGQSRLQPRRSDMRVDDASDYGNSQIDLHQAREHIEQHDSPRDIFGAVLETAAQAYGEDESIEDMLEELVSDPELTDDYLKLLLQQVRQRIQSASQSGNQS
notes: prey; AD fusion; output trait library; two clones; also called OsPN29950
For the molecule B14, the binding result in assay [2] is on record as “binds”.

B15: OsSGT1, prey clone aa 9-227 (other)
chain: LESKAKAAFVDDDFELAAELYTQAIEASPATAELYADRAQAHIKLGNYTEAVADANKAIELDPSMHKAYLRKGAACIRLEEYQTAKAALELGYSFASGDSRFTRLMKECDERIAEELTEVPVKKAEDGAAAPSVASFVEEKDDAANMDNTPPMVEVKPKYRHDFYNSATEVVLTIFAKGVPAENVVVDFGEQMLSVSIEVPGEEPYHFQPRLFSKIIPE
notes: prey; AD fusion; output trait library; also called PN20285
Consider B15, for which, in assay [6], the binding result is “binds”.
